What was measured:
[1] = target: Grb2 SH2 (UniProt P62993); test: SH2 binding enrichment of the phosphorylated peptide, bacterial display (enrichment ratio); higher = better substrate or ligand; peptides without Tyr show the background
[2] = target: c-Src SH2; test: as above
[3] = target: SHP2-C SH2; test: as above
[4] = target: EPHB1 (UniProt P54762); test: phosphorylation enrichment, bacterial display (enrichment ratio); higher = better substrate or ligand; peptides without Tyr show the background
Sequence of EPHB1 (P54762 whole entry, looked up): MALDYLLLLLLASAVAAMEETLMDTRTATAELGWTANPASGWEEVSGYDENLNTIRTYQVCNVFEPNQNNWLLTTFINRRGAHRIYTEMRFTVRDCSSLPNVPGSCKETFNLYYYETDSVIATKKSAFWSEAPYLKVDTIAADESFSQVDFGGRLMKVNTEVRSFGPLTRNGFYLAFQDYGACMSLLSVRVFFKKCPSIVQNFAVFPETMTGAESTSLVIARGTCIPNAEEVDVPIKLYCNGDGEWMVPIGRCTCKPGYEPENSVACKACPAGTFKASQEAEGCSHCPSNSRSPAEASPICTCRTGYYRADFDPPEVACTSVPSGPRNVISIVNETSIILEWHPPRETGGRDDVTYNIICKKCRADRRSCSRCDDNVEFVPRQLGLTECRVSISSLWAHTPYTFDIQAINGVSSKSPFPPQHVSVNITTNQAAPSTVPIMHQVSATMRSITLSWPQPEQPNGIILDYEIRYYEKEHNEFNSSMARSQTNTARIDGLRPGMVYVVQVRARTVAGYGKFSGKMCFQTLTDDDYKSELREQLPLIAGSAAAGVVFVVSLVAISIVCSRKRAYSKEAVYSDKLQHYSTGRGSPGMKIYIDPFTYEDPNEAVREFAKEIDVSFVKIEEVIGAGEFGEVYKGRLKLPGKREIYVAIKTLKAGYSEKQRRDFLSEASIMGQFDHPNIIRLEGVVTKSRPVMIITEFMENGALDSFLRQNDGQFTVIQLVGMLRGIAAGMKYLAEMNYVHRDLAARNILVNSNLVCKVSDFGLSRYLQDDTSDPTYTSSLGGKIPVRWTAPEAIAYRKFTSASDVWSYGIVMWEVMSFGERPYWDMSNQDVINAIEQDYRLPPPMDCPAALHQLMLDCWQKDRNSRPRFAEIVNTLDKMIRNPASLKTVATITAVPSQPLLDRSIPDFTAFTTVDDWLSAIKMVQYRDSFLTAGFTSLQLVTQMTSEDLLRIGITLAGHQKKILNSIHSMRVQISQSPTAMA

[5] = target: FGFR1 (UniProt P11362); test: as above
[6] = target: Jak2 (UniProt O60674); test: as above
Sequence of Jak2 (O60674 whole entry, looked up): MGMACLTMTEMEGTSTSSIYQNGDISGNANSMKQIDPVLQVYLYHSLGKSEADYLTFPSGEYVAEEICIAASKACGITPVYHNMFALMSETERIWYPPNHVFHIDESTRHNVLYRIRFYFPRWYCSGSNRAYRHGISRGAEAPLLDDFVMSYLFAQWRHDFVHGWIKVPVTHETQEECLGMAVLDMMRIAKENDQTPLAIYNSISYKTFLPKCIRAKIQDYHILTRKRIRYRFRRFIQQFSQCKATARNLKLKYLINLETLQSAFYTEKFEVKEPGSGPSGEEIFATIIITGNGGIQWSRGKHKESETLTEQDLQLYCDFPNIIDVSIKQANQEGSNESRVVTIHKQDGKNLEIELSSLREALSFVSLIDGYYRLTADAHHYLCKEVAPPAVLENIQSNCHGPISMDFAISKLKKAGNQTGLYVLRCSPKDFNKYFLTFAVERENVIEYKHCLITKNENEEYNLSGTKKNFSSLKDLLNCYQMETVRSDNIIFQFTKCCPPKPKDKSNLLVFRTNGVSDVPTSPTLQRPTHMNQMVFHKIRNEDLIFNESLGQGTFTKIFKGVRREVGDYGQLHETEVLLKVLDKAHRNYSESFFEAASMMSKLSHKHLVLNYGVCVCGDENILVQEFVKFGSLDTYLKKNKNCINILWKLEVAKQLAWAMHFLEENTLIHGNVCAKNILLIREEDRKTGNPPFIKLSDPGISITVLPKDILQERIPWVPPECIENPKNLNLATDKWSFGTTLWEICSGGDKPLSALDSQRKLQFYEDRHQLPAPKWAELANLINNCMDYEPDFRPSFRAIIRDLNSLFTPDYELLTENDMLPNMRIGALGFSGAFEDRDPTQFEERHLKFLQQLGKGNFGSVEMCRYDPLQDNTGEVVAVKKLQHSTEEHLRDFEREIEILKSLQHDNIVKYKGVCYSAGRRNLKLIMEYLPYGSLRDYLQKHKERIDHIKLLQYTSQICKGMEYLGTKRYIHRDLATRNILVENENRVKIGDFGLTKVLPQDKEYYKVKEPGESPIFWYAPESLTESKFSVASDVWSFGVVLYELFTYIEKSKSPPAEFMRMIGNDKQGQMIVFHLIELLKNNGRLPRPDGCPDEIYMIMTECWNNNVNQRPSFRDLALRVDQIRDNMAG

[7] = test system: AncSZ; test: as above
[8] = target: MERTK (UniProt Q12866); test: as above
Sequence of MERTK (Q12866 whole entry, looked up): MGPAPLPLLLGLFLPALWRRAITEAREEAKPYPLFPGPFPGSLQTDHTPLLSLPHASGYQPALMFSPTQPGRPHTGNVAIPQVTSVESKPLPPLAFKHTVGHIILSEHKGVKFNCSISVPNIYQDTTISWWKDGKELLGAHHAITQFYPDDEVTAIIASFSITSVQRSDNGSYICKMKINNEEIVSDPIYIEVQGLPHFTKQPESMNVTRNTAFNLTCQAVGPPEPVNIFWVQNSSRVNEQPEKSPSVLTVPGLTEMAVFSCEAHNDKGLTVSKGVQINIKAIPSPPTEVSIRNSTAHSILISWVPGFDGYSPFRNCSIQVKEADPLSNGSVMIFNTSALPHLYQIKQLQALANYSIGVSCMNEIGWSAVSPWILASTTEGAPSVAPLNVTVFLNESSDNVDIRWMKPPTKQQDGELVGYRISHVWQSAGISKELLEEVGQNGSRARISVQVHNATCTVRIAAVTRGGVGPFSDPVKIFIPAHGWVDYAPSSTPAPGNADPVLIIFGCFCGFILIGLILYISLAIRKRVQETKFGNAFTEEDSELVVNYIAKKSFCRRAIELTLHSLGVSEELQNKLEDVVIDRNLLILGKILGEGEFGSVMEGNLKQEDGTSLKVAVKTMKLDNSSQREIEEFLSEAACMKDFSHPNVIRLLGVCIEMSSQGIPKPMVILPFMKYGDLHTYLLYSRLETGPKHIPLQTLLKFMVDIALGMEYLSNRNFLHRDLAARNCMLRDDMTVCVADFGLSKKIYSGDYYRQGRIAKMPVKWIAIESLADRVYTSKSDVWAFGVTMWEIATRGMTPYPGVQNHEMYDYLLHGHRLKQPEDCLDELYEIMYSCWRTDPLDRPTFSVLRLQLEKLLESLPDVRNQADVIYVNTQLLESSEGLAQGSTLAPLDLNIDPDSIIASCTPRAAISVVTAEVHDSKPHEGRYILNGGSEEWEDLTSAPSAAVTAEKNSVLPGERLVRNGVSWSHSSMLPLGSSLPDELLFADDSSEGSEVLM

[9] = test system: Fer (mouse); test: as above
[10] = test system: c-Abl (mouse); test: as above
[11] = target: EPHB2 (UniProt P29323); test: as above
[12] = target: Hck (UniProt P08631); test: as above
[13] = target: Fyn (UniProt P06241); test: as above
[14] = target: Fes (UniProt P07332); test: as above
Sequence of Fes (P07332 whole entry, looked up): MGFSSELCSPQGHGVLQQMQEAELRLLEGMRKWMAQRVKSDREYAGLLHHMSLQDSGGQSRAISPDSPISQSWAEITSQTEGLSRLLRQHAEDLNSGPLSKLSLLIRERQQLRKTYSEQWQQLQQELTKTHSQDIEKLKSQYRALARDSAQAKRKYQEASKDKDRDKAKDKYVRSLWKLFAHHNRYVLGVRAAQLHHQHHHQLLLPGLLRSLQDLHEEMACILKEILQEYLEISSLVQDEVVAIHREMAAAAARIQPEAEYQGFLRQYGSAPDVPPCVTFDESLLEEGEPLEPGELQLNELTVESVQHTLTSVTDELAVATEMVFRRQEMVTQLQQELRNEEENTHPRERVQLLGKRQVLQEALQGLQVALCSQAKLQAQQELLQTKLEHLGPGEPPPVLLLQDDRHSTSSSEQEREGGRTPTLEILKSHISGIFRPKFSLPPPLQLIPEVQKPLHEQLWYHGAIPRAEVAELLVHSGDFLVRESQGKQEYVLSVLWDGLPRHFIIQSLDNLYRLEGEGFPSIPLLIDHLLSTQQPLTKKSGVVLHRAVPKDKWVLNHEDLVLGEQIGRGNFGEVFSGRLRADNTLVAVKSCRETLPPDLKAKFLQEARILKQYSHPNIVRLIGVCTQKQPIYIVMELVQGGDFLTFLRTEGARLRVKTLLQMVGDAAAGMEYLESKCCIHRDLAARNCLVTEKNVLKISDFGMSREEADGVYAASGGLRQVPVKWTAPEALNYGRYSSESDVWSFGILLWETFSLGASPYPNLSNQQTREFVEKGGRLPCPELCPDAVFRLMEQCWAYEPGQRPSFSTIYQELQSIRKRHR

[15] = test system: c-Src; test: as above
[16] = target: FGFR3 (UniProt P22607); test: as above
Sequence of FGFR3 (P22607 whole entry, looked up, the tested form may be a part): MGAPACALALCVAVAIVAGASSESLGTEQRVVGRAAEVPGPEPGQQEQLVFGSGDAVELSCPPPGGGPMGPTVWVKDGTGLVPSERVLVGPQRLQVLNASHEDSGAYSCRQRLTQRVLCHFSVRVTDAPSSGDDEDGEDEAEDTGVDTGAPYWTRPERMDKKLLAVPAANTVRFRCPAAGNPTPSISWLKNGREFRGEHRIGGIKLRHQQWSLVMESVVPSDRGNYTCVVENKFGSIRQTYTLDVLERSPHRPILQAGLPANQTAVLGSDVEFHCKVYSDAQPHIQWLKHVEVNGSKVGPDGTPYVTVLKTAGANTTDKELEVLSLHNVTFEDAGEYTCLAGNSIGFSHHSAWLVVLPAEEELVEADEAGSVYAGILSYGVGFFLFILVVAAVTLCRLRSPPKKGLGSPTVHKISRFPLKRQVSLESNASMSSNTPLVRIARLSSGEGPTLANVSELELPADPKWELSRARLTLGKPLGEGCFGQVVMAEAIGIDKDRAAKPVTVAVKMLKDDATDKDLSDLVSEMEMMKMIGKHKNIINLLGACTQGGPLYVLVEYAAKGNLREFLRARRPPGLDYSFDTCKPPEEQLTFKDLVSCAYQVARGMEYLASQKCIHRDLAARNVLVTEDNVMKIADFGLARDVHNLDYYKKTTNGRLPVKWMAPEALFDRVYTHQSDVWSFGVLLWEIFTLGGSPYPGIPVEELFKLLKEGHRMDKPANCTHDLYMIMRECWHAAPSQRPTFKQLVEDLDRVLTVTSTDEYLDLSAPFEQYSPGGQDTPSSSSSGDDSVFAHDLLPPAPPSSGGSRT
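Throughout, for SH2 binding enrichment of the phosphorylated peptide, bacterial display: peptide library displayed on the E. coli surface as eCPX fusions, selected cells deep-sequenced, score is each peptide's frequency after selection divided by its frequency in the input.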
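Throughout, for phosphorylation enrichment, bacterial display: 11-residue human phosphosite peptides and single-mutation variants displayed on the E. coli surface, counted by deep sequencing, each peptide's frequency after selection divided by its frequency in the unselected input library; frequency after pTyr selection over input frequency; kinase dosed for 20-30% of maximal phosphorylation in three min.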

Sequence of Grb2 SH2 (P62993 whole entry, looked up): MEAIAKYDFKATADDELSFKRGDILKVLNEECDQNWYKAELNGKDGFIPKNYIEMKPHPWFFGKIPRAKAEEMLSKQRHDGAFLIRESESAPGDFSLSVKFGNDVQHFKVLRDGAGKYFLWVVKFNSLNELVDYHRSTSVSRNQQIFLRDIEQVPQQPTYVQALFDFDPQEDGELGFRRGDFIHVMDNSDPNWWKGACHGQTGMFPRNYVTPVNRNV

IETGRYEILTE
SH2 binding enrichment [1]: 0.883 | SH2 binding enrichment [2]: 21.6 | SH2 binding enrichment [3]: 0.697 | phosphorylation enrichment [4]: 0.595 | phosphorylation enrichment [5]: 0.491 | phosphorylation enrichment [6]: 0.951 | phosphorylation enrichment [7]: 1.07 | phosphorylation enrichment [8]: 0.533 | phosphorylation enrichment [9]: 0.464 | phosphorylation enrichment [10]: 0.854 | phosphorylation enrichment [11]: 0.762 | phosphorylation enrichment [12]: 0.487 | phosphorylation enrichment [13]: 0.488 | phosphorylation enrichment [14]: 1 | phosphorylation enrichment [15]: 0.479 | phosphorylation enrichment [16]: 0.632

RIVRKYKKVRF [F8_Y442_G439V]
SH2 binding enrichment [1]: 0.652 | SH2 binding enrichment [2]: 0.477 | SH2 binding enrichment [3]: 0.503 | phosphorylation enrichment [4]: 0.699 | phosphorylation enrichment [5]: 0.647 | phosphorylation enrichment [6]: 0.65 | phosphorylation enrichment [7]: 0.964 | phosphorylation enrichment [8]: 0.824 | phosphorylation enrichment [9]: 0.93 | phosphorylation enrichment [10]: 0.687 | phosphorylation enrichment [11]: 0.84 | phosphorylation enrichment [12]: 0.547 | phosphorylation enrichment [13]: 0.823 | phosphorylation enrichment [14]: 0.78 | phosphorylation enrichment [15]: 0.87 | phosphorylation enrichment [16]: 0.765

GGTPLYMDRQG [AGXT_Y194]
SH2 binding enrichment [1]: 0.76 | SH2 binding enrichment [2]: 0.448 | SH2 binding enrichment [3]: 0.685 | phosphorylation enrichment [4]: 0.465 | phosphorylation enrichment [5]: 0.401 | phosphorylation enrichment [6]: 0.513 | phosphorylation enrichment [7]: 0.606 | phosphorylation enrichment [8]: 0.409 | phosphorylation enrichment [9]: 0.431 | phosphorylation enrichment [10]: 0.499 | phosphorylation enrichment [11]: 0.501 | phosphorylation enrichment [12]: 1.26 | phosphorylation enrichment [13]: 0.516 | phosphorylation enrichment [14]: 0.614 | phosphorylation enrichment [15]: 0.505 | phosphorylation enrichment [16]: 0.47

FLTSSYINIST [IL23R_Y178_YF]
SH2 binding enrichment [1]: 22.6 | SH2 binding enrichment [2]: 2.66 | SH2 binding enrichment [3]: 1.33 | phosphorylation enrichment [4]: 0.437 | phosphorylation enrichment [5]: 0.517 | phosphorylation enrichment [6]: 1.34 | phosphorylation enrichment [7]: 0.834 | phosphorylation enrichment [8]: 0.47 | phosphorylation enrichment [9]: 0.375 | phosphorylation enrichment [10]: 0.498 | phosphorylation enrichment [11]: 0.434 | phosphorylation enrichment [12]: 0.422 | phosphorylation enrichment [13]: 0.48 | phosphorylation enrichment [14]: 0.779 | phosphorylation enrichment [15]: 0.44 | phosphorylation enrichment [16]: 0.489

ISRDVYSTDYY [NTRK2_Y702_M697I]
SH2 binding enrichment [1]: 0.745 | SH2 binding enrichment [2]: 0.543 | SH2 binding enrichment [3]: 0.719 | phosphorylation enrichment [4]: 2.43 | phosphorylation enrichment [5]: 4.9 | phosphorylation enrichment [6]: 1.12 | phosphorylation enrichment [7]: 1.83 | phosphorylation enrichment [8]: 6.57 | phosphorylation enrichment [9]: 0.703 | phosphorylation enrichment [10]: 0.69 | phosphorylation enrichment [11]: 2.51 | phosphorylation enrichment [12]: 1.95 | phosphorylation enrichment [13]: 3.34 | phosphorylation enrichment [14]: 1.04 | phosphorylation enrichment [15]: 4.67 | phosphorylation enrichment [16]: 3.13

SPFEVYVDKSQ [FLNA_Y373]
SH2 binding enrichment [1]: 1.02 | SH2 binding enrichment [2]: 0.685 | SH2 binding enrichment [3]: 0.697 | phosphorylation enrichment [4]: 0.669 | phosphorylation enrichment [5]: 0.493 | phosphorylation enrichment [6]: 0.99 | phosphorylation enrichment [7]: 1.08 | phosphorylation enrichment [8]: 0.388 | phosphorylation enrichment [9]: 0.499 | phosphorylation enrichment [10]: 0.581 | phosphorylation enrichment [11]: 0.515 | phosphorylation enrichment [12]: 0.499 | phosphorylation enrichment [13]: 0.477 | phosphorylation enrichment [14]: 1.27 | phosphorylation enrichment [15]: 0.481 | phosphorylation enrichment [16]: 0.726

RTCSSYTIEKI [PARP15_Y520_A521T]
SH2 binding enrichment [1]: 0.813 | SH2 binding enrichment [2]: 0.59 | SH2 binding enrichment [3]: 0.739 | phosphorylation enrichment [4]: 0.608 | phosphorylation enrichment [5]: 0.475 | phosphorylation enrichment [6]: 1.13 | phosphorylation enrichment [7]: 0.937 | phosphorylation enrichment [8]: 0.533 | phosphorylation enrichment [9]: 0.502 | phosphorylation enrichment [10]: 0.84 | phosphorylation enrichment [11]: 0.474 | phosphorylation enrichment [12]: 0.726 | phosphorylation enrichment [13]: 0.638 | phosphorylation enrichment [14]: 1.51 | phosphorylation enrichment [15]: 0.544 | phosphorylation enrichment [16]: 1.18

FRARAYGFRGP [CHGA_Y381]
SH2 binding enrichment [1]: 0.705 | SH2 binding enrichment [2]: 0.465 | SH2 binding enrichment [3]: 0.476 | phosphorylation enrichment [4]: 0.472 | phosphorylation enrichment [5]: 0.497 | phosphorylation enrichment [6]: 0.686 | phosphorylation enrichment [7]: 0.839 | phosphorylation enrichment [8]: 0.748 | phosphorylation enrichment [9]: 0.532 | phosphorylation enrichment [10]: 0.658 | phosphorylation enrichment [11]: 0.506 | phosphorylation enrichment [12]: 0.569 | phosphorylation enrichment [13]: 0.676 | phosphorylation enrichment [14]: 0.747 | phosphorylation enrichment [15]: 0.651 | phosphorylation enrichment [16]: 0.427

QNAGDYYDLYG [PTPN11_Y62_T59A]
SH2 binding enrichment [1]: 0.897 | SH2 binding enrichment [2]: 0.687 | SH2 binding enrichment [3]: 0.625 | phosphorylation enrichment [4]: 15.5 | phosphorylation enrichment [5]: 19.5 | phosphorylation enrichment [6]: 3.1 | phosphorylation enrichment [7]: 4.8 | phosphorylation enrichment [8]: 3 | phosphorylation enrichment [9]: 1.56 | phosphorylation enrichment [10]: 1.04 | phosphorylation enrichment [11]: 13.6 | phosphorylation enrichment [12]: 5.32 | phosphorylation enrichment [13]: 5.41 | phosphorylation enrichment [14]: 1.25 | phosphorylation enrichment [15]: 4.65 | phosphorylation enrichment [16]: 20.3

AGITAYQSCLQ [ADGRA2_Y377]
SH2 binding enrichment [1]: 0.827 | SH2 binding enrichment [2]: 0.395 | SH2 binding enrichment [3]: 0.497 | phosphorylation enrichment [4]: 0.685 | phosphorylation enrichment [5]: 0.562 | phosphorylation enrichment [6]: 1.03 | phosphorylation enrichment [7]: 1.12 | phosphorylation enrichment [8]: 0.59 | phosphorylation enrichment [9]: 0.63 | phosphorylation enrichment [10]: 0.918 | phosphorylation enrichment [11]: 0.717 | phosphorylation enrichment [12]: 0.568 | phosphorylation enrichment [13]: 0.633 | phosphorylation enrichment [14]: 1.3 | phosphorylation enrichment [15]: 0.518 | phosphorylation enrichment [16]: 0.951

SILTVYSKDNY [PANK2_Y400_A398T]
SH2 binding enrichment [1]: 0.856 | SH2 binding enrichment [2]: 0.676 | SH2 binding enrichment [3]: 0.679 | phosphorylation enrichment [4]: 0.535 | phosphorylation enrichment [5]: 0.452 | phosphorylation enrichment [6]: 0.715 | phosphorylation enrichment [7]: 0.678 | phosphorylation enrichment [8]: 0.383 | phosphorylation enrichment [9]: 0.388 | phosphorylation enrichment [10]: 0.639 | phosphorylation enrichment [11]: 0.407 | phosphorylation enrichment [12]: 0.449 | phosphorylation enrichment [13]: 0.442 | phosphorylation enrichment [14]: 0.91 | phosphorylation enrichment [15]: 0.538 | phosphorylation enrichment [16]: 0.594

IRSGIYFKPES [L2HGDH_Y102_H98R_YF]
SH2 binding enrichment [1]: 0.776 | SH2 binding enrichment [2]: 0.642 | SH2 binding enrichment [3]: 1.13 | phosphorylation enrichment [4]: 0.63 | phosphorylation enrichment [5]: 0.542 | phosphorylation enrichment [6]: 1.19 | phosphorylation enrichment [7]: 0.913 | phosphorylation enrichment [8]: 4.3 | phosphorylation enrichment [9]: 0.467 | phosphorylation enrichment [10]: 2.88 | phosphorylation enrichment [11]: 0.687 | phosphorylation enrichment [12]: 0.786 | phosphorylation enrichment [13]: 0.768 | phosphorylation enrichment [14]: 0.95 | phosphorylation enrichment [15]: 0.673 | phosphorylation enrichment [16]: 0.625

FFRDGYMPRQF [GSS_Y270_YF]
SH2 binding enrichment [1]: 1.02 | SH2 binding enrichment [2]: 0.509 | SH2 binding enrichment [3]: 0.784 | phosphorylation enrichment [4]: 0.415 | phosphorylation enrichment [5]: 0.597 | phosphorylation enrichment [6]: 0.592 | phosphorylation enrichment [7]: 0.634 | phosphorylation enrichment [8]: 0.493 | phosphorylation enrichment [9]: 0.407 | phosphorylation enrichment [10]: 0.482 | phosphorylation enrichment [11]: 0.4 | phosphorylation enrichment [12]: 0.455 | phosphorylation enrichment [13]: 0.393 | phosphorylation enrichment [14]: 0.82 | phosphorylation enrichment [15]: 0.345 | phosphorylation enrichment [16]: 0.55

PVVKLYATDGR [RP1_Y199]
SH2 binding enrichment [1]: 0.876 | SH2 binding enrichment [2]: 0.569 | SH2 binding enrichment [3]: 0.558 | phosphorylation enrichment [4]: 0.745 | phosphorylation enrichment [5]: 0.648 | phosphorylation enrichment [6]: 0.781 | phosphorylation enrichment [7]: 0.781 | phosphorylation enrichment [8]: 0.451 | phosphorylation enrichment [9]: 0.575 | phosphorylation enrichment [10]: 0.781 | phosphorylation enrichment [11]: 0.78 | phosphorylation enrichment [12]: 0.554 | phosphorylation enrichment [13]: 0.601 | phosphorylation enrichment [14]: 1.01 | phosphorylation enrichment [15]: 0.576 | phosphorylation enrichment [16]: 0.802

Reference: the supplement of paper PMC10065799, “High-throughput profiling of sequence recognition by tyrosine kinases and SH2 domains using bacterial peptide display” (eLife, 2023)
